For the experiment, the target named is Human YKL-40 also known as Chitinase-3-like protein 1 (CHI3L1) (human) (UniProt P36222). Briefly: phage ELISA, plate coated with 0.5 ug purified YKL-40, anti-M13-HRP/TMB, well F2. In general terms: An ELISA detects its analyte on a solid surface through an enzyme-linked reagent.
Chain of UniProt P36222 (P36222 22-383 limits assumed): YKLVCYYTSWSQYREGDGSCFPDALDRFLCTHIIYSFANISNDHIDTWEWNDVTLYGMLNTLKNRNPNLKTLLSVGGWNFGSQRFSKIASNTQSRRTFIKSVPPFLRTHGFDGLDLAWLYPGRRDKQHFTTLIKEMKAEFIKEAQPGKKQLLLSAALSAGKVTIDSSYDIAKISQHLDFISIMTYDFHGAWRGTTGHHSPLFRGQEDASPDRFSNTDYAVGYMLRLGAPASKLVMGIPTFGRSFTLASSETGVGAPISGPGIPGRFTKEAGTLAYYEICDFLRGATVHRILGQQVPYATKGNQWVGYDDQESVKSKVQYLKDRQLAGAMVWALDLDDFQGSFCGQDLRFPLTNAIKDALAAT

B1: 2B8 predator (VHH)
VHH: EVQLLESGGGLVQPGGSLRLSCAASGFRDSDEDMGWVRQAPGKGLEWVSSIYAPNGSTYYADSVKGRFTISRDNSKNTLYLQMNSLRAEDTAVYYCASNTYDAFDYWGQGTLVTVSS
Turning to B1, the ELISA signal worked out at 0.054.

These data come from patent publication US20210347912A1.
